Data taken from article PMC12860359, “Selection and optimization strategy for Rap1-targeting single-domain antibodies as platelet activation markers” (Research and Practice in Thrombosis and Haemostasis, 2025).
Residue numbers refer to the chain shown, from its start.

Experiments:
LexA-Rap1B G12V = molecular target: T1, LexA-Rap1B G12V (Homo sapiens, G12V)
T1 chain: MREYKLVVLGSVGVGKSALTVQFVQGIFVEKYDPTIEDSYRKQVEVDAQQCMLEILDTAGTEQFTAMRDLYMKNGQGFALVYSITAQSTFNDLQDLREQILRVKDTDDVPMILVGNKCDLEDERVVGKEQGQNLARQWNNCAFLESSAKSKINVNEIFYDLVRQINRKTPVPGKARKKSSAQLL

VHH-hFcS A47 [1] = molecular target: T2, VHH-hFcS A47; experiment: BLI; OCTET R2; VHH-hFcS (2.5 μg/mL) on protein A biosensors; Rap1B loaded with GTPγS in solution at 0.04, 0.13, 0.4, 1.2 μM; 20 mM Tris-HCl pH 7.4, 0.1% BSA, 200 mM NaCl, 2 mM EDTA, 10 mM MgCl2; 25 °C; 1:1 fit; conditions: both partners purified
T2 construct: VHH A47; Bivalent VHH-Fc; also called VHH-FcS A47; VHH-Fc silent A47; source: HEK293, transfected (pHLSec), serum-free medium, purified

VHH-hFcS B89 [2] = molecular target: T3, VHH-hFcS B89; experiment: as above; conditions: both partners purified
T3 construct: as the VHH of m19 (A47); Bivalent VHH-Fc; Some immunoprecipitations name only 'VHH-Fc B89' without the kind of Fc; also called VHH-Fc B89; source: HEK293, transfected (pHLSec), serum-free medium, purified

VHH-hFcS B89 [3] = molecular target: T3, VHH-hFcS B89; experiment: co-IP; immunoprecipitation: VHH-Fc (1-2 μg) on Protein A/G magnetic beads incubated overnight at 4 °C with human platelet lysates (~200 μg protein) loaded with GTPγS or from platelets stimulated with TRAP or ADP; Rap1 western blot; conditions: one partner purified
[4] = molecular target: T4, VHH-Fc A64 (immunoprecipitation); experiment: as above; conditions: one partner purified
T4 construct: VHH A64; source: HEK293, transfected; 2 μg used

VHH-hFcS A47 [5] = molecular target: T2, VHH-hFcS A47; experiment: ELISA; VHH-FcS (1.25 μg/mL) captured on goat antihuman Fc (Fab')2-coated plates; human platelet lysates (6 × 10^6 platelets/well) loaded with GTPγS, or PRP before and after stimulation with TRAP or ADP; detection with anti-Rap1 monoclonal (Abcam) or polyclonal (Merck) antibody; conditions: one partner purified
VHH-hFcS B14 = molecular target: T5, VHH-hFcS B14; experiment: as above; conditions: one partner purified
T5 construct: as the VHH of m19 (A47); Bivalent VHH-Fc; also called VHH-Fc B14; source: HEK293, transfected (pHLSec), serum-free medium, purified

B1: A145 (VHH)
VHH: EVQLQASGGGFVQPGGSLRLSCAASGATWKHEIMGWFRQAPGKEREFVSAISSQPGLWDYYADSVKGRFTISRDNSKNTVYLQMNSLRAEDTATYYCATPGQRMIEYWGQGTQVTVSS
B1: binds (LexA-Rap1B G12V).

B2: A141 (VHH)
VHH: EVQLQASGGGFVQPGGSLRLSCAASGATSKLSAMGWFRQAPGKEREFVSAISAQNDFWTYYADSVKGRFTISRDNSKNTVYLQMNSLRAEDTATYYCAHHFPSTAKSYWGQGTQVTVSS
B2: binds (LexA-Rap1B G12V).

B3: MBP-HA Rap1B WT (natural protein, human, UniProt P61224-1 1-184, looked up)
chain: T1 chain with V12G
notes: loaded with GTPγS or GDP before the assays; this is the only recombinant wild-type Rap1B it describes; also called human Rap1B; recombinant Rap1B; source: E. coli BL21DE3, purified (amylose resin); not shown: MBP, N-terminal, kept; HA, N-terminal, kept
B3 was tested, and the Kd (VHH-hFcS A47 [1]) was 17.2 nM, the Kd (VHH-hFcS B89 [2]) was 4.4 nM and the koff (VHH-hFcS B89 [2]) was 0.000513 s⁻¹. For the same binder, the kon (VHH-hFcS B89 [2]) was 166000 M⁻¹ s⁻¹.

B4: Rap1 of human platelets (natural protein, human (endogenous in platelets), UniProt P61224 1-184, looked up)
chain: MREYKLVVLGSGGVGKSALTVQFVQGIFVEKYDPTIEDSYRKQVEVDAQQCMLEILDTAGTEQFTAMRDLYMKNGQGFALVYSITAQSTFNDLQDLREQILRVKDTDDVPMILVGNKCDLEDERVVGKEQGQNLARQWNNCAFLESSAKSKINVNEIFYDLVRQINRKTPVPGKARKKSSC
notes: also called active Rap1; source: endogenous, human platelet lysate
B4: binds (VHH-hFcS B89 [3]); binds [4]; binds (VHH-hFcS A47 [5]). B4: binds (VHH-hFcS B14).
